Assay results: patent US20190352354A1

Target: commercial Trail (TNF-related apoptosis-inducing ligand, TRAIL) (UniProt P50591)
Assay: cell-based or functional assay

Chain of commercial Trail (TNF-related apoptosis-inducing ligand, TRAIL) (P50591 114-281 limits assumed): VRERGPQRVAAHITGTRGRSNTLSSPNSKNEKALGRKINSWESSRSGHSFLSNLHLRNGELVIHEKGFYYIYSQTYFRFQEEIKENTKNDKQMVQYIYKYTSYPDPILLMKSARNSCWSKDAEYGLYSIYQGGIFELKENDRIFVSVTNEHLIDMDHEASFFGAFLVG
Chain of commercial DR5-Fc fusion protein (R&D Systems) (O14763 52-182): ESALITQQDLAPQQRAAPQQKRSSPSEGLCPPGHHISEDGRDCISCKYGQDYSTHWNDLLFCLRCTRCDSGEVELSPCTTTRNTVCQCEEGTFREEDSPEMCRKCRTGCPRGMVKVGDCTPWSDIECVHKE

EC50 of blocking TRAIL-induced apoptosis of HepG2 cells: 0.0276 µg/mL
Substance: commercial DR5-Fc fusion protein (R&D Systems) (from UniProt O14763 52-182)
EC50 of blocking Trail (at EC90) killing of Jurkat cells, MTS/PMS A490-A630: 0.0718 µg/mL
